These results are taken from article doi:10.1101/2022.09.22.509106 (bioRxiv, 2022).

In data set [1] the target is T1, purified human C1q protein (human, UniProt P02745 23-245; P02746 28-253; P02747 29-245). As to the kind of experiment: pull-down.
The target of data set [2] is T1, purified human C1q protein. As to the kind of experiment: immunostaining of cells or tissue.
Data set [3] deals with the molecule itself. As to the kind of experiment: negative staining electron microscopy.

T1 sequence (P02745 23-245, chain 1 of 3): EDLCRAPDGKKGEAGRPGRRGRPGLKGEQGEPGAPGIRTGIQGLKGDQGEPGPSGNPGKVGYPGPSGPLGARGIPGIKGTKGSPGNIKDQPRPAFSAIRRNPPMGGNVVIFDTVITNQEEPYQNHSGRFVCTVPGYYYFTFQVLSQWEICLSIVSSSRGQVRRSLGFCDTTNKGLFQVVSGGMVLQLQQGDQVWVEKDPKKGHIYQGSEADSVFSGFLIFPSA
T1 sequence (P02746 28-253, chain 2 of 3): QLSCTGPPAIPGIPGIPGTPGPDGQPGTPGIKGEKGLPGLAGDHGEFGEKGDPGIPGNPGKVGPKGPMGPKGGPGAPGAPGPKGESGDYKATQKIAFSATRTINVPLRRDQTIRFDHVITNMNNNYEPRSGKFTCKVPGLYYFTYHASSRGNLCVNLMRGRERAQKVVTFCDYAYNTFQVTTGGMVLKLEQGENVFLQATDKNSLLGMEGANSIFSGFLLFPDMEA
T1 sequence (P02747 29-245, chain 3 of 3): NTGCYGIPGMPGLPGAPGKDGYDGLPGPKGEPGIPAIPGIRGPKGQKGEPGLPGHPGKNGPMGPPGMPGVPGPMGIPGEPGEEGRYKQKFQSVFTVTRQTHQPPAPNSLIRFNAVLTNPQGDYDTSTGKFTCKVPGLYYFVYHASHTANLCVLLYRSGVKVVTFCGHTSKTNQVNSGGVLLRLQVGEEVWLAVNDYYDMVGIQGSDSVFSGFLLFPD

B1: Rat Nptx2 pentraxin domain (X2-PD) (domain or fragment, UniProt P97738 224-425, looked up)
chain: DAFKVSLPLRTNYLYGKIKKTLPELYAFTICLWLRSSASPGIGTPFSYAVPGQANEIVLIEWGNNPIELLINDKVAQLPLFVSDGKWHHICITWTTRDGMWEAFQDGEKLGTGENLAPWHPIKPGGVLILGQEQDTVGGRFDATQAFVGELSQFNIWDRVLRAQEIINIANCSTNMPGNIIPWVDNNVDVFGGASKWPVETC
As to B1, in data set [1], the binding result is “binds”.

B2: Nptxr and Nptx2 co-expressed on a stable tetracycline-inducible CHO cell-line (Nptxr/x2) (complex, human)
chain 1: MKFLAVLLAAGMLAFLGAVICIIASVPLAASPARALPGGADNASVASGAAASPGPQRSLSALHGAGGSAGPPALPGAPAASAHPLPPGPLFSRFLCTPLAAACPSGAQQGDAAGAAPGEREELLLLQSTAEQLRQTALQQEARIRADQDTIRELTGKLGRCESGLPRGLQGAGPRRDTMADGPWDSPALILELEDAVRALRDRIDRLEQELPARVNLSAAPAPVSAVPTGLHSKMDQLEGQLLAQVLALEKERVALSHSSRRQRQEVEKELDVLQGRVAELEHGSSAYSPPDAFKISIPIRNNYMYARVRKALPELYAFTACMWLRSRSSGTGQGTPFSYSVPGQANEIVLLEAGHEPMELLINDKVAQLPLSLKDNGWHHICIAWTTRDGLWSAYQDGELQGSGENLAAWHPIKPHGILILGQEQDTLGGRFDATQAFVGDIAQFNLWDHALTPAQVLGIANCTAPLLGNVLPWEDKLVEAFGGATKAAFDVCKGRAKA
chain 2: GAQDSPAPGSRFVCTALPPEAVHAGCPLPAMPMQGGAQSPEEELRAAVLQLRETVVQQKETLGAQREAIRELTGKLARCEGLAGGKARGAGATGKDTMGDLPRDPGHVVEQLSRSLQTLKDRLESLEHQLRANVSNAGLPGDFREVLQQRLGELERQLLRKVAELEDEKSLLHNETSAHRQKTESTLNALLQRVTELERGNSAFKSPDAFKVSLPLRTNYLYGKIKKTLPELYAFTICLWLRSSASPGIGTPFSYAVPGQANEIVLIEWGNNPIELLINDKVAQLPLFVSDGKWHHICVTWTTRDGMWEAFQDGEKLGTGENLAPWHPIKPGGVLILGQEQDTVGGRFDATQAFVGELSQFNIWDRVLRAQEIVNIANCSTNMPGNIIPWVDNNVDVFGGASKWPVETCEERLLDL
Consider B2, for which, in data set [2], the Kd is approximately 2 nM.

B3: neuronal pentraxin 2 (Nptx2), purified recombinant, His-tagged (natural protein, UniProt P47972 16-431, looked up)
chain: GAQDSPAPGSRFVCTALPPEAVHAGCPLPAMPMQGGAQSPEEELRAAVLQLRETVVQQKETLGAQREAIRELTGKLARCEGLAGGKARGAGATGKDTMGDLPRDPGHVVEQLSRSLQTLKDRLESLEHQLRANVSNAGLPGDFREVLQQRLGELERQLLRKVAELEDEKSLLHNETSAHRQKTESTLNALLQRVTELERGNSAFKSPDAFKVSLPLRTNYLYGKIKKTLPELYAFTICLWLRSSASPGIGTPFSYAVPGQANEIVLIEWGNNPIELLINDKVAQLPLFVSDGKWHHICVTWTTRDGMWEAFQDGEKLGTGENLAPWHPIKPGGVLILGQEQDTVGGRFDATQAFVGELSQFNIWDRVLRAQEIVNIANCSTNMPGNIIPWVDNNVDVFGGASKWPVETCEERLLDL
For B3, the “stoichiometry N” value in data set [3] came to 6.
